Measured values as given in the nanobody polyreactivity screen of Harvey et al. (2022).

Assay: yeast display, Sf9 membrane polyspecificity reagent, FACS + sequencing; frameworks hold sequencing errors
How it was run: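 After 36–48 hours of galactose induction, yeast (Saccharomyces cerevisiae BJ5465) displaying a synthetic nanobody library were stained at 4 °C for 1 hour with 10% biotinylated, detergent-solubilized Sf9 membrane reagent. Streptavidin microbeads enriched the stained cells before FACS sorting into low and high (top ~1%) gates on anti-HA and streptavidin fluorescence. Each clone's polyreactivity label reflects its gate of origin.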

Sequence: QVQLVESGGGLVQAGGSLRLSCAASGRIFDQYALGGSRQAPGKERELVAAITSGGSTYYADSVKGRFTISRDNAKNTVYLQMNSLKPEDTAVYYCAAEWQWYGYVLYKYYYWGQGTQVTVSS
- polyreactivity (PSR sort gate): high polyreactivity

Sequence: QVQLVESGGGLVQAGGSLRLSCAASGRIFPSYAMGWYRQAPGKERELVAAISSSGGRTYYADSVKGRFTISRDNAKNTVYLQKNSLKPEDTAVYYCNARSPAYFYQWLYSFRYDYWGQGTQVTVSS
- polyreactivity (PSR sort gate): high polyreactivity

Sequence: QVQLVESGGGLVQAGGSLRLSCAASGSIFTGNAMGWYRQAPGKERELVAAITRTGSTNYADSVKGRFTISRDNAKNTVYLQMNSLKPEDTAVYYCATDRTFTISNYDYWGQGTQVTVSS
- polyreactivity (PSR sort gate): low polyreactivity

Sequence: QVQLVESGGGLVQAGGSLRLSCAASGRIFRKYTKGWYRQAPGKERELVAAITGTGGSTYYADSVKGRFTISRDNAKNTVYLQMNSLKPEDTAVYYCAADYSARYGFWGLGTQVTVSS
- polyreactivity (PSR sort gate): high polyreactivity

Sequence: QVQLVESGGGLVQAGGSLRLSCAASGSIFTNYAMGWYRQAPGKERELVAAISQSGDTTYNADSVKGRFTISRDNAKNTVYLQMNSLKPEDTAVFFCAAQYYRWFYYWGQGTQVTVSS
- polyreactivity (PSR sort gate): high polyreactivity

Sequence: QVQLVESGGGLVQAGGSHRLSCAASGFTFTYYAMGWYRQAPGKERELVADITSGGGTNYADSVKGRFTISRDNAKNTVFLQMNSLKPEDTAVYYCAADAYHQGMDYWGQGTQVTVSS
- polyreactivity (PSR sort gate): low polyreactivity

Sequence: QVQLVESGGGLVQAGGSLRLSCAASGRTFRYYAMGWYRQAPGKERELVAAITSGGSTNYADSVKGRFTISRDNAKNTVYLQMNSLKPEDTAVYYCAAYWRSRNRFFWGQGTQVTVSS
- polyreactivity (PSR sort gate): high polyreactivity

Sequence: QFQLVESGGGLVQAGGSLRLSCAASGRIFVINAMGWYRKATGIETELVAAISSSGGSTSYADSVKGRFTISRDNAKNTVYLQMNSLKPEDTAVYYCADKPRVRRDDGYYWGQGTLVTVSS
- polyreactivity (PSR sort gate): high polyreactivity

Sequence: QVQLVESGGGLVQAGGSLRLSCAASGSTFYRNAMGWYRQAPGKERELVAAITWSGGTTYYADSVKGRFTISRDNAKNTVYLQMNSLKPEDTAVYYCAARFILAPRRGYNAYKYYYWGQGTQVTVSS
- polyreactivity (PSR sort gate): high polyreactivity

Sequence: QVQLVESGGGLDQAGGSLPLSCAASGLTFSSYAMGWYRQAPGKESELVATITSSGGDNTNYADSVKGRFTISRDNAKNTVYLQMNSLKPEDTAVYYCNKEGQQSYRWRMDYWGQGTQVTVSS
- polyreactivity (PSR sort gate): low polyreactivity

Sequence: QVQLVESGGGLVQAGGSLRLSCAASGITFKWNDMGWYRQAPGKEREFVAAITGSTGSTFYAGSVKGRFTISRDNAKNTVYLQMNSLKPEDTAVYYCAAGPWFYYWGQGTQVTVSS
- polyreactivity (PSR sort gate): low polyreactivity

Sequence: QVQHVESGGGLVQAGGSLRLSCAASGLTLKRNAMGWYRQAPGKERELVAAISGRGGSTYYADSVKGRFTISRDNAKNTVYLQMNSLKPEDTAVYYCAATVQYSPIYDYWGQGTQVTVSS
- polyreactivity (PSR sort gate): high polyreactivity

Sequence: QVQLVESGGGLVQAGGSLRLSCAASGLTFYINDMGWYRQAPGKERELVAAITRGGSTNYADSVKGRLTISRDNAKNTVYLQMNSLKPEDTAVYYCAAGARYGYGYWGHGTQVTVSS
- polyreactivity (PSR sort gate): high polyreactivity

Sequence: QVQLVESGGGLVQAGGSLRLSCAASGFIFGSNAMGWYRQAPGKERELVAAIDSSGGRTYYADSVKGRFTISRDNAKNTVYLQMISLKPEDTAVYYCNVYRWSQLFEYDYWGQGTQVTVSS
- polyreactivity (PSR sort gate): high polyreactivity

Sequence: QVQLVETGGGLVQAGGSLRLSCAPSGRTFGPYAMGWYRQAPGKERELVAAIRVRGASTYYADSVKVRFTISRDNEKNTVYLQMNSLKPEDTEVYYCAATLSYYVGVRYDYWGQGTQVTVSS
- polyreactivity (PSR sort gate): high polyreactivity

Sequence: QVQLVESGGGLVQAGGSLRLSCGASGRIFWDNAMGWYRQAPGKERELVAAIDYRGGNTNYADSVKGRFTISRDNAKNTVYLQMNRLKTEDTAVYYCNAEWAVRYPGYDYWGQGTQVTVSS
- polyreactivity (PSR sort gate): low polyreactivity

Sequence: QVQLVESGGGLVQAGGSHRLSCAASGRTFVVYAMGWYRQAPGKERELVARIRWRDVSTYYADSVKGRFTISRDNAKTTVYLQMNSLKPEDTAVYYCAARSYTGGGRLYYWGQGTQVTVSS
- polyreactivity (PSR sort gate): high polyreactivity

Sequence: QVQLVESGGGLVQAGGSLRLSCAASGRTFHGYAMGWYRQAPGKERELVAAITSSGARTYYADSVKGRFTISRDNAKNTVFLQMNILKPEDSAVYYCAVNWLRGMDWGQGTQVTVSS
- polyreactivity (PSR sort gate): high polyreactivity

Sequence: QVQLVESGGGLVQAGGILRLSCAASGIIFDTNAMGWYRQAPGKERELVASISKRGGSTYYADSVKGRFTISRDNAKNTVYFQMNSLKPEDTAVYYCNALRRRLYHDDYWGQGTQVTVSS
- polyreactivity (PSR sort gate): high polyreactivity

Sequence: QVQLVESGGGLVQAGGSLRLSCAASGRTFRYYAMVWYRQAPGKEREWVASISSSGARTYYADSVKGRFTISRDNAKNTVYLRMNSQKPEDSAVYYCAASQRSGHPSYDYWGQGTQVTVSS
- polyreactivity (PSR sort gate): high polyreactivity

Sequence: QVQLVESGGGLVQAGGSLRLSCAASGFIFRWYAMGWYRQAPGKERELVAANSSGSSTTYADSVKGRFTISRDNAKNTVYLQMNSLKPEDTAVYYCNRGPRIYRYQYDYWGQGTQVTVSS
- polyreactivity (PSR sort gate): high polyreactivity

Sequence: QVQLVESGGGLVQAGGSLRLSCAASGFTFTRNAMGRYRQAPGKERELVAAITSSGGRTYYADSVKGRFTISRDNAKNTVYLQMNSLKPVDTAVYYCAVYPRYSLPARDYDYWGQGTQVTVSS
- polyreactivity (PSR sort gate): high polyreactivity

Sequence: QVQLVESGGGLVQAGGSLRLSCAASGNIFSYNAMGWYRQAPGKERELVAAITTSSGRTYYADSVKGRFTISRDNAKNTVYLQMNSLKPEDTAVYYCNRTVSRRSYRWDYDYWGQGTQVTVSS
- polyreactivity (PSR sort gate): high polyreactivity

Sequence: QVQLEESGGGLVQAGGSLRLSCAASGSTVGIYAMGWYRPAPGKERELVAAISSRGSTYYADSVKGRFTISRDNAKNTVYLQMNSLKPEDTAVYYCAAGYAWYNYWGQGTQVTVSS
- polyreactivity (PSR sort gate): high polyreactivity

Sequence: QVQLVESGGGLVQAGGSLRLSCAASGFTFGYNDMGWYRQAPGKERELVAGIRSGDDTNYADSVKGRFTISRDNAKNTVYLQMNSLKPEDTAVYYCAVGYGDYLYYDYDYWGQGTQVTVSS
- polyreactivity (PSR sort gate): low polyreactivity

Sequence: QVQLVESGGGLVQAGGSLRLSSSACGSTFYKNAMGWDRQAPGKERELVAGISRRGGRTYYADSLKGRFTISRDNANNTVYLQMNSLKPVDTADYYCNTGHEEDEYDYWGQGTQVTVSS
- polyreactivity (PSR sort gate): low polyreactivity

Sequence: QVQLVESGGGLVQAGGSLRLSCAASGRIFARYAMGWYRQAPGKERELVAAITVSGDNTYYADSVKGRFTISRDNAKNTVYLQMNSLKPEDTAVYYCNAYFLVHYRRLRPYDYWGQGTQVTVSS
- polyreactivity (PSR sort gate): low polyreactivity

Sequence: QVQLVESGGGLVQAGGSLRLSCAASGRIFYTYAMGWYRQAPGKASELVAAITYRGGSTYYADSVKGRFTISRDIAKNTVYLQMNSLKPADTAVYYCAARPGRGPDSRWRYKYDYWGQGTQVTVSS
- polyreactivity (PSR sort gate): high polyreactivity

Sequence: QVQLVESGGGLDQAGGSLRLSFAASGSTFVPNVMGWYRQAPGKERELVASITSGGITNYADSVKGRFTISRDNAKNTVYLQMNSLKPEDTAVKGDYWGQGTQVTVSS
- polyreactivity (PSR sort gate): low polyreactivity

Sequence: QVQLVESGGGLVQAGGRLRLSCAASGSTFSFNAMGWYRQAPGKERELVAAIRVSSGTTYYADSVKGRFTISRDNAKNTVYLQMNSLKPEDTAVYYCAARYYYDWRQYGYWGQGTQVTVSS
- polyreactivity (PSR sort gate): high polyreactivity

Sequence: QVQLVESGGGLVQAGGSLRLSCAASGSIFSSYSMGWYRQAPGKERELVAAIDGSGGSTYADSVKGRFTISRDNAKNTVYLQMNSLKPEDTAVYYCAVDSFLVYSAVRPYDYWGHGTQVTVSS
- polyreactivity (PSR sort gate): low polyreactivity

Sequence: QVQLVESGGGLVQAGGSLRLSCAASGRTFYTYAMGWYRQAPGKERELVASISRSGSGTFYADSVKGRFTISRDNAKNTVYLQMNSLKPEDTAVYYCNAVSAAKIPFQKYGYWGQGTQVTVSS
- polyreactivity (PSR sort gate): high polyreactivity
